Results from patent publication US20050113304.

Target: T1, Buforin I
T1 chain: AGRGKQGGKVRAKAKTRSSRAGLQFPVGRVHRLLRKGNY

B1: Botulinum toxin B (protein)
chain 1: PVTINNFNYNDPIDNNNIIMMEPPFARGTGRYYKAFKITDRIWIIPERYTFGYKPEDFNKSSGIFNRDVCEYYDPDYLNTNDKKNIFLQTMIKLFNRIKSKPLGEKLLEMIINGIPYLGDRRVPLEEFNTNIASVTVNKLISNPGEVERKKGIFANLIIFGPGPVLNENETIDIGIQNHFASREGFGGIMQMKFCPEYVSVFNNVQENKGASIFNRRGYFSDPALILMHELIHVLHGLYGIKVDDLPIVPNEKKFFMQSTDAIQAEELYTFGGQDPSIITPSTDKSIYDKVLQNFRGIVDRLNKVLVCISDPNININIYKNKFKDKYKFVEDSEGKYSIDVESFDKLYKSLMFGFTETNIAENYKIKTRASYFSDSLPPVKIKNLLDNEIYTIEEGFNISDKDMEKEYRGQNKAINKQAYEEISKEHLAVYKIQMCKSVK
chain 2: APGICIDVDNEDLFFIADKNSFSDDLSKNERIEYNTQSNYIENDFPINELILDTDLISKIELPSENTESLTDFNVDVPVYEKQPAIKKIFTDENTIFQYLYSQTFPLDIRDISLTSSFDDALLFSNKVYSFFSMDYIKTANKVVEAGLFAGWVKQIVNDFVIEANKSNTMDKIADISLIVPYIGLALNVGNETAKGNFENAFEIAGASILLEFIPELLIPVVGAFLLESYIDNKNKIIKTIDNALTKRNEKWSDMYGLIVAQWLSTVNTQFYTIKEGMYKALNYQAQALEEIIKYRYNIYSEKEKSNINIDFNDINSKLNEGINQAIDNINNFINGCSVSYLMKKMIPLAVEKLLDFDNTLKKNLLNYIDENKLYLIGSAEYEKSKVNKYLKTIMPFDLSIYTNDTILIEMFNKYNSEILNNIILNLRYKDNNLIDLSGYGAKVEVYDGVELNDKNQFKLTSSANSKIRVTQNQNIIFNSVFLDFSVSFWIRIPKYKNDGIQNYIHNEYTIINCMKNNSGWKISIRGNRIIWTLIDINGKTKSVFFEYNIREDISEYINRWFFVTITNNLNNAKIYINGKLESNTDIKDIREVIANGEIIFKLDGDIDRTQFIWMKYFSIFNTELSQSNIEERYKIQSYSEYLKDFWGNPLMYNKEYYMFNAGNKNSYIKLKKDSPVGEILTRSKYNQNSKYINYRDLYIGEKFIIRRKSNSQSINDDIVRKEDYIYLDFFNLNQEWRVYTYKYFKKEEEKLFLAPISDSDEFYNTIQIKEYDEQPTYSCQLLFKKDEESTDEIGLIGIHRFYESGIVFEEYKDYFCISKWYLKEVKRKPYNLKLGCNWQFIPKDEGWTE
- substrate cleavage in the endopeptidase assay: B-I is not a substrate for BttxB
